Data taken from patent publication EP4628097A1 (Innovent Biologics (Suzhou) Co., Ltd., dated 2025).

What was measured:
human Ang2 [1] = biological target: T1, human Ang2 (human, UniProt O15123 19-496, limits assumed); assay: ELISA, relative binding activity; final formula 40 mg/mL, 40 C, 4W
T1 construct: Bought proteins; also called hAng2-biotin; Ang2-Bio (Sino)
T1 sequence (looked up): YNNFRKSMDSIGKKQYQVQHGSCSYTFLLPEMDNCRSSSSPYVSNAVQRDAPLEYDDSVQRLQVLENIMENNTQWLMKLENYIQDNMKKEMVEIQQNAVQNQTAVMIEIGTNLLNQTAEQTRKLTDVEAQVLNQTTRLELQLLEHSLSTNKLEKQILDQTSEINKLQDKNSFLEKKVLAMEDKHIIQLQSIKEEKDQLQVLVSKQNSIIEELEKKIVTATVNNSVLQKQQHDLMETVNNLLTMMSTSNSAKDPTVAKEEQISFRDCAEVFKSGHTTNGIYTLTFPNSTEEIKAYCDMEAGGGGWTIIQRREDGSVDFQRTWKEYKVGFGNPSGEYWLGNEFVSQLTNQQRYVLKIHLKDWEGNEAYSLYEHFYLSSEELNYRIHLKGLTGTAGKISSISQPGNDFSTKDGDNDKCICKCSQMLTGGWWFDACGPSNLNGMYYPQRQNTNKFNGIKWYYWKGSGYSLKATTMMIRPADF

human VEGF165 [2] = biological target: T2, human VEGF165 (human, UniProt P15692-4 27-191); assay: as above
T2 construct: all are put under this molecule; also called VEGF A; VEGFA
T2 sequence (P15692 other isoform, or with tags, fused parts or gaps limits assumed): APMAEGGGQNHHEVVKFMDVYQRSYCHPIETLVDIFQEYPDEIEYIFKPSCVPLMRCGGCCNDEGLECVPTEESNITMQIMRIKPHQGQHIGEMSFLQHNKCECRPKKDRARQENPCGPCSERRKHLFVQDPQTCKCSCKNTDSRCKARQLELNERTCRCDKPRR

human Ang2 [3] = biological target: T1, human Ang2; assay: ELISA, relative binding activity; 120 mg/mL formula, T0
human VEGF165 [4] = biological target: T2, human VEGF165; assay: as above
human Ang2 [5] = biological target: T1, human Ang2; assay: ELISA, relative binding activity; final formula 40 mg/mL, 40 C, 2W
human VEGF165 [6] = biological target: T2, human VEGF165; assay: as above
human Ang2 [7] = biological target: T1, human Ang2; assay: ELISA, relative binding activity; IEX04-012 about 40 mg/mL in F6, 40 C, 0 weeks
human VEGF165 [8] = biological target: T2, human VEGF165; assay: as above
human Ang2 [9] = biological target: T1, human Ang2; assay: ELISA, relative binding activity; IEX04-012 about 40 mg/mL in F10, 40 C, 2 weeks
human VEGF165 [10] = biological target: T2, human VEGF165; assay: as above
human Ang2 [11] = biological target: T1, human Ang2; assay: ELISA, relative binding activity; IEX04-012 about 40 mg/mL in F1, 40 C, 0 weeks
human VEGF165 [12] = biological target: T2, human VEGF165; assay: as above
human Ang2 [13] = biological target: T1, human Ang2; assay: ELISA, relative binding activity; 120 mg/mL formula, 25 C, 2M
human VEGF165 [14] = biological target: T2, human VEGF165; assay: as above
human Ang2 [15] = biological target: T1, human Ang2; assay: ELISA, relative binding activity; IEX04-012 about 40 mg/mL in F10, 40 C, 0 weeks
human VEGF165 [16] = biological target: T2, human VEGF165; assay: as above
human Ang2 [17] = biological target: T1, human Ang2; assay: ELISA, relative binding activity; IEX04-012 about 40 mg/mL in F9, 40 C, 0 weeks
human VEGF165 [18] = biological target: T2, human VEGF165; assay: as above
human Ang2 [19] = biological target: T1, human Ang2; assay: ELISA, relative binding activity; IEX04-012 about 40 mg/mL in F2, 40 C, 2 weeks
human VEGF165 [20] = biological target: T2, human VEGF165; assay: as above
human Ang2 [21] = biological target: T1, human Ang2; assay: ELISA, relative binding activity; final formula 40 mg/mL, 25 C, 1M
human VEGF165 [22] = biological target: T2, human VEGF165; assay: as above
human Ang2 [23] = biological target: T1, human Ang2; assay: ELISA, relative binding activity; IEX04-012 about 40 mg/mL in F9, 40 C, 2 weeks
human VEGF165 [24] = biological target: T2, human VEGF165; assay: as above
human Ang2 [25] = biological target: T1, human Ang2; assay: ELISA, relative binding activity; IEX04-012 about 40 mg/mL in F7, 40 C, 1 week
human VEGF165 [26] = biological target: T2, human VEGF165; assay: as above

B1: IEX04-012 (bispecific antibody)
chain: DIQLTQSPSSLSASVGDRVTITCSASQDISNYLNWYQQKPGKAPKVLIYFTSSLHSGVPSRFSGSGSGTDFTLTISSLQPEDFATYYCQQYSTVPWTFGCGTKVEIKGGGGSGGGGSGGGGSGGGGSEVQLVESGGGLVQPGGSLRLSCAASGYDFTHYGMNWVRQAPGKCLEWVGWINTYTGEPTYAADFKRRFTFSLDTSKSTAYLQMNSLRAEDTAVYYCAKYPYYYGTSHWYFDVWGQGTLVTVSSGGGGSGGGGSGGGGSEVQLLESGGGLVQPGGSLRLSCAASGFALDYYAIGWFRQAPGKGLEGVSCISSGEGSTYYADSVKGRFTISRDNSKNTVYLQMNSLRAEDTAVYYCATDSRGDDVACEGLRRNEYDYWGQGTLVTVSS
- Relative binding Activity to Ang2 (ELISA, %) (human Ang2 [1]): 74%
- Relative binding Activity to VEGF A (ELISA, %) (human VEGF165 [2]): 78%
- Relative binding Activity to Ang2 (ELISA, %) (human Ang2 [3]): 92%
- Relative binding Activity to VEGF A (ELISA, %) (human VEGF165 [4]): 101%
- Relative binding Activity to Ang2 (ELISA, %) (human Ang2 [5]): 86%
- Relative binding Activity to VEGF A (ELISA, %) (human VEGF165 [6]): 91%
- Relative binding Activity to Ang2 (ELISA, %) (human Ang2 [7]): 100%
- Relative binding Activity to VEGF (ELISA, %) (human VEGF165 [8]): 100%
- Relative binding Activity to Ang2 (ELISA, %) (human Ang2 [9]): 99%
- Relative binding Activity to VEGF (ELISA, %) (human VEGF165 [10]): 99%
- Relative binding Activity to Ang2 (ELISA, %) (human Ang2 [11]): 100%
- Relative binding Activity to VEGF (ELISA, %) (human VEGF165 [12]): 100%
- Relative binding Activity to Ang2 (ELISA, %) (human Ang2 [13]): 84%
- Relative binding Activity to VEGF A (ELISA, %) (human VEGF165 [14]): 92%
- Relative binding Activity to Ang2 (ELISA, %) (human Ang2 [15]): 100%
- Relative binding Activity to VEGF (ELISA, %) (human VEGF165 [16]): 100%
- Relative binding Activity to Ang2 (ELISA, %) (human Ang2 [17]): 100%
- Relative binding Activity to VEGF (ELISA, %) (human VEGF165 [18]): 100%
- Relative binding Activity to Ang2 (ELISA, %) (human Ang2 [19]): 102%
- Relative binding Activity to VEGF (ELISA, %) (human VEGF165 [20]): 99%
- Relative binding Activity to Ang2 (ELISA, %) (human Ang2 [21]): 93%
- Relative binding Activity to VEGF A (ELISA, %) (human VEGF165 [22]): 98%
- Relative binding Activity to Ang2 (ELISA, %) (human Ang2 [23]): 90%
- Relative binding Activity to VEGF (ELISA, %) (human VEGF165 [24]): 99%
- Relative binding Activity to Ang2 (ELISA, %) (human Ang2 [25]): 90%
- Relative binding Activity to VEGF (ELISA, %) (human VEGF165 [26]): 102%
